Source: patent US20260315592 (published 2026)

Biological target: ENPP3 (human)
Sequence (chain, as listed by the source): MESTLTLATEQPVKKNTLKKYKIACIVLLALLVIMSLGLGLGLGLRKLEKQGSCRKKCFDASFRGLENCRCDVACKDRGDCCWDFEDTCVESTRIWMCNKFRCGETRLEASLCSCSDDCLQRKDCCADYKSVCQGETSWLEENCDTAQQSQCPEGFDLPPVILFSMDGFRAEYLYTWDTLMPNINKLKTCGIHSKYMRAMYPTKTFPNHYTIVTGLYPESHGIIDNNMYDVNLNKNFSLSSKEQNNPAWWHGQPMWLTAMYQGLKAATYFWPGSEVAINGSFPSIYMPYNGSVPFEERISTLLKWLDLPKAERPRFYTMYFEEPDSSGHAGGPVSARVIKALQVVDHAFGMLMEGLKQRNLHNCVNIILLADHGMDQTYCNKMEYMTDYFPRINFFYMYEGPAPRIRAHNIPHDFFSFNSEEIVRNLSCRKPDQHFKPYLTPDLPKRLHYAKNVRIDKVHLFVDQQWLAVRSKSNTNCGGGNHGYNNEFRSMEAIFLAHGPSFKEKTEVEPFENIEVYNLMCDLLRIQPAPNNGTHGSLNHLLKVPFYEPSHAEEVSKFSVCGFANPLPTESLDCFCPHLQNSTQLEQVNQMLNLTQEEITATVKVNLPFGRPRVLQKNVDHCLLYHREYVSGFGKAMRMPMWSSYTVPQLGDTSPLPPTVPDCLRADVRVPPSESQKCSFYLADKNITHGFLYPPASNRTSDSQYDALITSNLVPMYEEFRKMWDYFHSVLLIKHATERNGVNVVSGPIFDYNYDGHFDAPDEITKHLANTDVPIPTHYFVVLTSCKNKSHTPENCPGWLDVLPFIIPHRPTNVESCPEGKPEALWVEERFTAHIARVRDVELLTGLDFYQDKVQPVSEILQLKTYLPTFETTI

Row | Binder | Kd [nM]
1 | SX13-10 (CAR48) (antibody) QLLESGGGLVKPGGSLRLSCAASGFTFSRYNMNWVRQAPGKGLEWVSFISGSSSYVYYADSVKGRFTISKDNAKNSLYLQMNSLRAEDTAVYYCARSGYCTSTTCYNYYYYYMDVWGKGTTVTVSSSGGGGSGGGGSGGGGSEIVLMQSPGTLSLSPGERATLSCRASQSVSNSYLAWYQQKPGQAPRLLIYGASSRATGIPDRFSGSGSGTDFTLTISRLEPEDFAVFYCQQFGSSPLTFGGGTKVEIK | 113
2 | SX13-12 (CAR49) (antibody) QLVESGGGLVKPGGSLRLSCAASGFTFSDYSMNWVRQAPGKGLNWVASISSSSHYKYYADSVKGRFTISRDNAKNSLYLQMNSLRAEDTAVYYCARGIDFFDIWGQGTMVTVSSSGGGGSGGGGSGGGGSDIQLTQSPSFLSASVGDRVTITCRASQDINSYLVWYQQKPGKAPKLLIYTASTLQSGVPSRFSGSGSGTEFTLTIRSLQPEDFATYYCQQLNSYPRTFGQGTKVEIK | 23.5

Stronger by Kd, values ahead:

Row | Kd [nM] | Binder
3 | 4.24 | SX13-7 (CAR46) (antibody) QLVESGGGLVKPGGSLRLSCAASGFTFSDYSMNWVRQAPGKGLEWVSSISSSSSYKKYADSVKGRLTISRDNAKNSLYLQMNSLRAEDTAVYYCARGIDYFDYWGQGTLVTVSSSGGGGSGGGGSGGGGSDIQLTQSPSFLSASVGDRVTITCRASQGISSNLAWYQQKPGKDPKVLIYGASTLQSGVPSRFSGSGSGTEFTLTISSLQPEDFATYYCQQLNSYPRTFGQGTKVEIK
4 | 18.9 | SX13-1 (CAR42) (antibody) QLVESGGGLVKPGGSLRLSCAASGFTFSDYSMNWVRQAPGKGLEWVSSISSSSRYKYYADSMKGRFTISRDNAKNSLYLQMNSLRVEDTAVYYCTRGIDYFDYWGQGTLVTVSSSGGGGSGGGGSGGGGSDIQLTQSPSFLSASVGDRVTITCRASQDINNYLAWYQQKPGKAPKFLIHVASTLQSGVPSRFSGSGSGTEFTLTISSLQPEDSATYYCQQLNSYPRTFGQGTKVEIK
